Source: patent publication US20240417437A1, “Linker Polypeptides” (Trutino Biosciences Inc., priority 2021, published 2024)

System: collagen
Experiment: Collagen-agarose pulldown assay with IL-2 immunoblot
Format: binding
Settings: for binding to collagen-agarose beads (pulldown): 18-22 hours at 4° C.
Method: To test binding to collagen, a pulldown assay using agarose cross-linked to collagen (Sigma) was performed. IL-2 fusion proteins were incubated with collagen-agarose or control agarose beads for 18-22 hours at 4° C. with gentle rotation in 1% BSA/PBS-0.05% Tween 20. After washing, proteins bound to the beads were eluted by resuspending beads in SDS sample buffer (Life Technologies). Bound proteins were then separated by SDS-PAGE on 4-12% BisTris gradient gel, followed by immunoblotting with goat anti-mouse IL-2 polyclonal antibody (AF-402-NA; R&D systems). Donkey anti-goat HRP-conjugated antibody was used for detection (Jackson Immuno Research, West Grove, PA), and the blot was developed using the SuperSignal West Femto Maximum sensitivity detection reagent (ThermoFisher) following the manufacturer's recommendations.

| binding to collagen-agarose beads (pulldown) | Molecule | fraction bound, fold higher than the fraction of bound Construct B (blot quantitation) [fold] |
| --- | --- | --- |
| specifically bound | Construct GG: mIL2-SGG-KLWVLPK-MMPcs1-2x(G4S)-mIL2Ra(1-215)-muIgG1Fc; collagen IV (protein, Synthetic: Construct GG, mIL2-SGG-KLWVLPK-MMPcs1-2x(G4S)-mIL2Ra(1-215)-muIgG1Fc; collagen IV) APTSSSTSSSTAEAQQQQQQQQQQQQHLEQLLMDLQELLSRMENYRNLKLPRMLTFKFYLPKQATELKDLQCLEDELGPLRHVLDLTQSKSFQLEDAENFISNIRVTVVKLKGSDNTFECQFDDESATVVDFLRRWIAFCQSIISTSPQSGGKLWVLPKGPLGVRGGGGGSGGGGSELCLYDPPEVPNATFKALSYKNGTILNCECKRGFRRLKELVYMRCLGNSWSSNCQCTSNSHDKSRKQVTAQLEHQKEQQTTTDMQKPTQSMHQENLTGHCREPPPWKHEDSKRIYHFVEGQSVHYECIPGYKALQRGPAISICKMKCGKTGWTQPQLTCVDEREHHRFLASEESQGSRNSSPESETSCPITTTDFPQPTETTAMTETFVLTMEYKGCKPCICTVPEVSSVFIFPPKPKDVLTITLTPKVTCVVVDISKDDPEVQFSWFVDDVEVHTAQTQPREEQFNSTFRSVSELPIMHQDWLNGKEFKCRVNSAAFPAPIEKTISKTKGRPKAPQVYTIPPPKEQMAKDKVSLTCMITDFFPEDITVEWQWNGQPAENYKNTQPIMDTDGSYFVYSKLNVQKSNWEAGNTFTCSVLHEGLHNHHTEKSLSHSPGK | 2.5 |
| specifically bound | Construct II: mIL2-LHERHLNNN-MMPcs1-2x(G4S)-mIL2Ra(1-215)-muIgG1Fc; collagen I (protein, Synthetic: Construct II, mIL2-…-MMPcs1-2x(G4S)-mIL2Ra(1-215)-muIgG1Fc; collagen I) APTSSSTSSSTAEAQQQQQQQQQQQQHLEQLLMDLQELLSRMENYRNLKLPRMLTFKFYLPKQATELKDLQCLEDELGPLRHVLDLTQSKSFQLEDAENFISNIRVTVVKLKGSDNTFECQFDDESATVVDFLRRWIAFCQSIISTSPQSLHERHLNNNGPLGVRGGGGGSGGGGSELCLYDPPEVPNATFKALSYKNGTILNCECKRGFRRLKELVYMRCLGNSWSSNCQCTSNSHDKSRKQVTAQLEHQKEQQTTTDMQKPTQSMHQENLTGHCREPPPWKHEDSKRIYHFVEGQSVHYECIPGYKALQRGPAISICKMKCGKTGWTQPQLTCVDEREHHRFLASEESQGSRNSSPESETSCPITTTDFPQPTETTAMTETFVLTMEYKGCKPCICTVPEVSSVFIFPPKPKDVLTITLTPKVTCVVVDISKDDPEVQFSWFVDDVEVHTAQTQPREEQFNSTFRSVSELPIMHQDWLNGKEFKCRVNSAAFPAPIEKTISKTKGRPKAPQVYTIPPPKEQMAKDKVSLTCMITDFFPEDITVEWQWNGQPAENYKNTQPIMDTDGSYFVYSKLNVQKSNWEAGNTFTCSVLHEGLHNHHTEKSLSHSPGK | – |
